The DeepSol protein solubility set

Experiment: soluble on expression in E. coli; label from the status in PepcDB or PDB records

Row | Sequence | soluble on expression in E. coli
1 | IINGEDCSPHSQPWQAALVMENELFCSGVLVHPQWVLSAAHCFQNSYTIGLGLHSLEADQEPGSQMVEASLSVRHPEYNRPLLANDLMLIKLDESVSESDTIRSISIASQCPTAGNSCLVSGWGLLANGRMPTVLQCVNVSVVSEEVCSKLYDPLYHPSMFCAGGGQDQKDSCNGDSGGPLICNGYLQGLVSFGKAPCGQVGVPGVYTNLCKFTEWIEKTVQA | soluble
2 | IKDFDYNIGFNMSTTKNKVVELSDADQVLQGEGLKYGTEHFPTETRVGKPIGAFYLYRTDGIFQSMDEVNAHVNKDGQLLQPNAQPGDIRFKDLDGNGSIDAGDKEYCGSGIPTLEANLNLSFGYKGFDLSIVLGSAWNFKLYNGNKYFYEGMNSKSNMLKSTLNAWTPDNRNTDVPRAVYQDPNGNMKESDRFLENGDFVRLRQAQLGYTLPKSLMQKFYIEKLRFYVSGENLFTITGYDGIDPEFSRASVLNTGVDKLIYPFTRSFTVGAQLTF | not soluble
3 | ILQTTVDGNSTAISNLKSDISSNGLAITDLQDRVKSLESTASHGLSFSPPLSVADGVVSLDMDPYFCSQRVSLTSYSAEAQLMQFRWMARGTNGSSDTIDMTVNAHCHGRRTDYMMSSTGNLTVTSNVVLLTFDLSDITHIPSDLARLVPSAGFQAASFPVDVSFTRDSATHAYQAYGVYSSSRVFTITFPTGGDGTANIRSLTVRTGIDT | soluble
4 | INPPQHKQFQNLMPMQPRRYPEGKVLPDREREFPNTFPEHSSPLLLPKQELDMRWRGPHPLPGY | not soluble
5 | IPADELFSRDALRKVEDIRNKTKNKSYIRKALKKPWNILVGSLPVGFDFPARIIAEIVDAPKLSLEGLVKKANYYLSEGADIVDIGMVAGETNVKFLDVIPEFREVLGREVPISLDSLNAKELEAGLDFVDMILSVDWSNVEDLVTDKPVVLIPTDMKNGYFPLNPRDRVESLEKLKEKALSLGYKRIIADLILEHYPGFSRSIVAFSLYRDRNREDIMLAGVGNVTEMTDADSPGINALLAGIASELRISMLLTTEVSRKCTGSIRELRRAIDMTLLGGVKDVGLNLLLLKEKKDKGLRFEISKNIVEAKRKEVKLEDTYFRIFVDNGKIYVNAYKGMNLVITIVGNEPNEIMDTILDYFSLSPRHAFYLGRELEKAYTALKLRRSYAQEEELFRDFYTK | not soluble
6 | IRHEITSRTSVSVLVNRCNWFCTSPKCSGLTVMGCLCVAMSVAKKDKPTMSVTALINWARPLPPGQQQQPMTPTSPGNMLQPMATPSNLPTVDCSLDIQWLNLEGGFMSPMSPPEMKPDTAMLDGLRDDSTPPPAFKNYPPNHPLSGSKHLCSICGDRASGKHYGVYSCEGCKGFFKRTVRKDLTYACREERNCIIDKRQRNRCQYCRYQKCLACGMKREAVQEERQRAARGTEDAHPSSSVQVQELSIERLLEMESLVADPSEEFQFLRVGPDSNVPPKFRAPVSSLCQIGNKQIAALVVWARDIPHFSQLEMEDQILLIKGSWNELLLFAIAWRSMEFLTEERDGVDGTGNRTTSPPQLMCLMPGMTLHRNSALQAGVGQIFDRVLSELSLKMRTLRVDQAEYVALKAIILLNPDVKGLKNRQEVEVLREKMFLCLDEYCRRSRSSEEGRFAALLLRLPALRSISLKSFEHLFFFHLVADTSIAGYIRDALRNHAPPIDTNMM | soluble
7 | KAEMRHMENKVLESELRQRAVVEASLLETQGRLLEQLESAPEAIICLREDQRIRFANEAACKLFKRSLEQLKRS | not soluble
8 | KCGFSYGVGFNVFNYKAVVTKYNNPEGIIYNNHTGLAANKGYYEGMDIGEIWGYRADDLFLSNREIDDYLRNVNLTAFKSNDLWRRGDLKYIDSNGDGRVDGGKGTLADHGDLQIIGNTTPKYSFGINLNLGYKGFEVSTLLQGVAKRDFPISGSNYMFGGNNYNFKEHLDYFSTENPNGYLPRLTGWKDDKDFLVNTGYNTTRYLLNAAYMRMKNLTVAYTFNKKQLKHIGISNLKVYVTCDNLFTVTKLPKQFDPETLNQVNMSAGGDAQNTAPGLTSPMKQNGNGMVYPMNRNFVFGLDFTF | not soluble
9 | KDWRDKDQSDGFGKVYVTEKVAQIKQIPFDASKLHSSPQMAAQHNMVDDGSGKVEIWRVENNGRIQVDQNSYGEFYGGDCYIILYTYPRGQIIYTWQGANATRDELTTSAFLTVQLDRSLGGQAVQIRVSQGKEPVHLLSLFKDKPLIIYKNGTSKKGGQAPAPPTRLFQVRRNLASITRIVEVDVDANSLNSNDVFVLKLPQNSGYIWVGKGASQEEEKGAEYVASVLKCKTLRIQEGEEPEEFWNSLGGKKDYQTSPLLETQAEDHPPRLYGCSNKTGRFVIEEIPGEFTQDDLAEDDVMLLDAWEQIFIWIGKDANEVEKKESLKSAKMYLETDPSGRDKRTPIVIIKQGHEPPTFTGWFLGWDSSKW | soluble
